Measurements taken from article PMC8239413.

Biological target: truncated RBD variant RBD-215 (amino acids R319-L533), plant-produced (SARS-CoV-2) (UniProt P0DTC2)
Experiment: SEC; IMAC-purified RBD-215 (Supplementary Figure 4)

Substance: truncated RBD variant RBD-215 (amino acids R319-L533), plant-produced (from UniProt P0DTC2 319-533) (domain or fragment)
- percent dimers: 10%
